First the molecules themselves.
B1: biotin-labeled AP2µ [modified: biotin (incorporated with Transcend Biotinylated tRNA during translation); biotin (incorporated with Transcend Biotinylated tRNA during translation)] [murine] / GST-21-mer of CD79a centered on Y193 [murine] (parent complex)
chain 1: MIGGLFIYNHKGEVLISRVYRDDIGRNAVDAFRVNVIHARQQVRSPVTNIARTSFFHVKRSNIWLAAVTKQNVNAAMVFEFLYKMCDVMAAYFGKISEENIKNNFVLIYELLDEILDFGYPQNSETGALKTFITQQGIKSQHQTKEEQSQITSQVTGQIGWRREGIKYRRNELFLDVLESVNLLMSPQGQVLSAHVSGRVVMKSYLSGMPECKFGMNDKIVIEKQGKGTADETSKSGKQSIAIDDCTFHQCVRLSKFDSERSISFIPPDGEFELMRYRTTKDIILPFRVIPLVREVGRTKLEVKVVIKSNFKPSLLAQKIEVRIPTPLNTSGVQVICMKGKAKYKASENAIVWKIKRMAGMKESQISAEIELLPTNDKKKWARPPISMNFEVPFAPSGLKVRYLKVFEPKLNYSDHDVIKWVRYIGRSGIYETRC
chain 2: EGLNLDDCSMYEDISRGLQGT
B2: biotin-labeled AP2µ [modified: biotin (incorporated with Transcend Biotinylated tRNA during translation); biotin (incorporated with Transcend Biotinylated tRNA during translation)] [murine] / GST-CD79a cytoplasmic domain [murine] (parent complex)
chain 1: B1 chain 1
chain 2: RKRWQNEKFGVDMPDDYEDENLYEGLNLDDCSMYEDISRGLQGTYQDVGNLHIGDAQLEKP
B3: biotin-labeled AP2µ [modified: biotin (incorporated with Transcend Biotinylated tRNA during translation); biotin (incorporated with Transcend Biotinylated tRNA during translation)] [murine] / GST-21-mer of CD79a centered on the membrane … (parent complex)
chain 1: B1 chain 1
chain 2: MPDDYEDENLYEGLNLDDCSM

In one experiment the parent is B1. Kind of experiment: in vitro binding of AP2µ-btn to bead-captured GST-21-mer; parent: 65; read off a plot.
Turning to chain 2 Y11E, the screen value was ~53 % of full-length CD79a.
Same read-out and setting: in the case of chain 2 Y11A it was ~50 % of full-length CD79a.

The variants in another experiment derive from B2. Kind of experiment: in vitro binding of AP2µ-btn to bead-captured GST fusion protein; parent: 100; read off a plot.
In the case of chain 2 Y34E, chain 2 Y45E, the percent of parent is ~83 % of CD79a.
For chain 2 Y23A, chain 2 Y45A, the percent of parent was ~50 % of CD79a.
As for chain 2 Y34E, the percent of parent was ~100 % of CD79a.
On to chain 2 Y34A, for which the percent of parent is ~99 % of CD79a.
The same measure, in the same setting: in the case of chain 2 Y45A it was ~105 % of CD79a.
Still for that read-out and setting: the same measure for chain 2 Y45E: ~102 % of CD79a; for chain 2 Y23A, chain 2 Y34A: ~78 % of CD79a; for chain 2 Y23A, chain 2 Y34A, chain 2 Y45A: ~53 % of CD79a.
Still for that read-out and setting: the same measure for chain 2 Y23E, chain 2 Y45E: ~41 % of CD79a; for chain 2 Y23E, chain 2 Y34E: ~58 % of CD79a; for chain 2 Y23E: ~49 % of CD79a.
Regarding chain 2 Y23A, the percent of parent is ~77 % of CD79a.
On the same count and under the same terms, the same measure for chain 2 Y23E, chain 2 Y34E, chain 2 Y45E: ~24 % of CD79a; for chain 2 Y34A, chain 2 Y45A: ~104 % of CD79a.

The next experiment covers variants of B3. Kind of experiment: in vitro binding of AP2µ-btn to bead-captured GST-21-mer; parent: 81; read off a plot.
For the variant chain 2 Y11E, the screen value was ~42 % of full-length CD79a.
On the same count and under the same terms, in the case of chain 2 Y11A it was ~41 % of full-length CD79a.

For the origin of these results see paper PMC3553015 (2013).
